Test results reported in patent CN101798349A (INST BIOENGINEERING AMMS, dated 2010).

Target: T1, uPAR蛋白 (尿激酶型纤溶酶原激活物受体, R&D Systems 807-UK-100) (UniProt Q03405 23-303, limits assumed)
T1 construct: Bought protein; also called 抗原uPAR
Experiment: SPR, Biacore 3000, CM5 chip, HBS-EP pH 7.4, 0-100 nmol/L, mean of 3 repeats

T1 sequence (Q03405 23-303 limits assumed): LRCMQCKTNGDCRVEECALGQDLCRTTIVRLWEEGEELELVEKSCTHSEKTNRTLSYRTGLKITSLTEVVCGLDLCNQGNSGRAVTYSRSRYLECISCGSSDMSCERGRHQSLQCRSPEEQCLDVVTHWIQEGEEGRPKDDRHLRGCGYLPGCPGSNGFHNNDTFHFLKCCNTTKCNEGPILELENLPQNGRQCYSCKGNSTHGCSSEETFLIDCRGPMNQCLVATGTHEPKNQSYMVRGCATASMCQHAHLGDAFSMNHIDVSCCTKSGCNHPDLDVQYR

B1: 抗uPAR人源化抗体Y2B (antibody, V domains shown)
VH: EVQLVQSGAEVKKPGSSVKVSCKASGYTFTDYYIHWVRQAPGQGLEWIGWIFHGSDNTEYNEKFKSKATITADESTSTAYMELSSLRSEDTAVFYCARWGPHWYFDAWGRGTLVTVSP
VL: DIQMTQSPSTLSASVGDRVTITCRASSSVSYIHWYQQKPGRAPKPLMYEASSRATGVPSRFSGSGSGTEYTLTISSLQSDDFATYYCQQWNYPFTFGQGTKLEIKR
notes: also called 抗uPAR抗体Y2B; Y2B抗体
Kd: 14.9 nM
